Data taken from paper PMC10364585.

Target: recombinant spider silk protein eADF4(C16)
Test: seeded turbidity kinetics at 340 nm; monomeric eADF4(C16) 10-40 uM with 0.5% or 30% (w/w) preformed seeds (sonicated mature fibrils of the same protein), 150 mM KPi pH 8.0, quiescent, 20-40 C; global fit with AmyloFit (secondary nucleation model)

- rate constant for primary nucleation kn: 1e-09 M⁻¹ s⁻¹
Substance: recombinant spider silk protein eADF4(C16)
